Assay [1] deals with hPSC-derived foregut spheroids / HLOs. The assay can be described thus: hPSC-derived foregut spheroid / human lung organoid (HLO) culture: growth and phenotype. The class given is cell-based. As to the method: Given the robustness by which 3F media supported mouse and human lung bud progenitor growth and identity, experiments sought to determine whether these culture conditions could promote a distal epithelial lung progenitor-like population from hPSCs. NKX2.1+ ventral foregut spheroids were generated as previously described (Dye et al., 2016a; 2015), and were cultured in a droplet of Matrigel and overlaid with media containing 3F (FGF7, CHIR-99021, RA). Spheroids were considered to be “day 0” on the day they were placed in Matrigel. […] Epithelial structures grew first as cystic structures over the course of 2 weeks, followed by a period of epithelial folding that occurred between weeks 3-4 (FIG. 7A; FIG. 8C-D). Around 5-6 weeks in culture, the epithelial structures began forming bud-like structures that resembled human fetal epithelial distal bud tips that underwent bifurcations (FIG. 7A-B; FIG. 8D—bottom row). HLOs were passaged by gently removing Matrigel and replating in a fresh droplet while preserving structural integrity. In this way, HLOs were able to grow for over 16 weeks in culture while retaining their original shape. HLOs could also be passaged using mechanical shear through a 27-gauge needle, followed by embedding in fresh Matrigel and 3F media (FIG. 8E). Following passage, HLOs robustly re-established many small cysts that were expanded and serially passaged every 7-10 days many times (FIG. 8F).
The University of Michigan Human Pluripotent Stem Cell Research Oversight (hPSCRO) Committee approved all experiments using human embryonic stem cell (hESC) lines. hESC line UM63-1 (NIH registry #0277) was obtained from the University of Michigan and hESC line H9 (NIH registry #0062) was obtained from the WiCell Research Institute. ES cell lines were routinely karyotyped to ensure normal karyotype and ensure the sex of each line (H9-XX, UM63-1-XX). Cells are monitored for mycoplasma infection monthly using the MycoAlert Mycoplasma Detection Kit (Lonza). […]

Another assay relates to E13.5 mouse lung buds. In words: Marker expression (QRT-PCR, immunostaining) in cultured mouse lung buds. The class given is cell-based. The method, then: RNA was extracted using the MagMAX-96 Total RNA Isolation System (Life Technologies). RNA quality and concentration was determined on a Nanodrop 2000 spectrophotometer (Thermo Scientific). 100 ng of RNA was used to generate a cDNA library using the SuperScript VILO cDNA master mix kit (Invitrogen) according to manufacturer's instructions. qRT-PCR analysis was conducted using Quantitect SYBR Green Master Mix (Qiagen) on a Step One Plus Real-Time PCR system (Life Technologies). Expression was calculated as a change relative to GAPDH expression using arbitrary units, which were calculated by the following equation: [2^(GAPDH Ct−Gene Ct)]×10,000. A Ct value of 40 or greater was considered not detectable. A list of primer sequences used can be found in Table 1.
Mouse bud, human bud, and HLO tissue was fixed in 4% Paraformaldehyde (Sigma) for 2 hours and rinsed in PBS overnight. Tissue was dehydrated in an alcohol series, with 30 minutes each in 25%, 50%, 75% Methanol:PBS/0.05% Tween-20, followed by 100% Methanol, and then 100% Ethanol. Tissue was processed into paraffin using an automated tissue processor (Leica ASP300). Paraffin blocks were sectioned 5-7 uM thick, and immunohistochemical staining was performed as previously described (Spence et al., 2009). A list of antibodies, antibody information and concentrations used can be found in Table 2. PAS Alcian blue staining was performed using the Newcomer supply Alcian Blue/PAS Stain kit (Newcomer Supply, Inc.) according to manufacturer's instructions.
For whole mount staining tissue was placed in a 1.5 mL eppendorf tube and fixed in 4% paraformaldehyde (Sigma) for 30 minutes. Tissue was then washed with PBS/0.05% Tween-20 (Sigma) for 5 hours, followed by a 2.5-hour incubation with blocking serum (PBS-Tween-20 plus 5% normal donkey serum). Primary antibodies were added to blocking serum and tissue was incubated for at least 24 hours at 4 degrees Celsius. Tissue was then washed for 5 hours with several changes of fresh PBS-Tween-20. Secondary antibodies were added to fresh blocking solution and tissue was incubated for 12-24 hours, followed by 5 hours of PBS-Tween-20 washes. Tissue was then dehydrated to 100% methanol and carefully moved to the center of a single-well EISCO concave microscope slide (ThermoFisher Cat#S99368) using a glass transfer pipette. 5-7 drops of Murray's clear ([…] [Sigma]) were added to the center of the slide, and slides were coverslipped and sealed with clear nail polish.

Where [2] appears, read: proportion of organoids in the medium.

B1: Recombinant Human Fibroblast Growth Factor 7 (protein, UniProt P21781 32-194, looked up)
Fibroblast growth factor 7: CNDMTPEQMATNVNCSSPERHTRSYDYMEGGDIRVRRLFCRTQWYLRIDKRGKVKGTQEMKNNYNIMEIRTVAVGIVAIKGVESEFYLAMNKEGKLYAKKECNEDCNFKELILENHYNTYASAKWTHNGGEMFVALNQKGIPVRGKKTKKEQKTAHFLPMAIT
notes: Recombinant human growth factor from R&D systems, used at 10 ng/mL unless otherwise noted
On to B1, for which, in assay [1] (42 days 3F then 26 days FGF7 only, compared to 3F HLOs), the “HLO morphology after switch to FGF7 only” value was “lost the peripheral bud-like regions”. In assay [1] (setting [2]), the “HLOs with 'dense' phenotype” value amounted to 90% and the “HLOs with clear epithelial phenotype” value was found to be 5%. For the same molecule, the “Scgb1a1 expression after switch to FGF7 only (QRT-PCR)” value in the assay on E13.5 mouse lung buds (5 days 4F media then 4 days FGF7 only, versus 4F) is given as “increased”. Moreover, the “SOX9 protein and mRNA expression after switch to FGF7 only” value with E13.5 mouse lung buds (5 days 4F media then 4 days FGF7 only, versus 4F throughout) was “reduction of SOX9 protein and mRNA expression”. The “Sox9 expression over time in culture (QRT-PCR)” value in the assay on E13.5 mouse lung buds (FGF7 culture, compared to day 0) is on record as “significantly reduced after 3 days in culture”. In addition, in the assay on E13.5 mouse lung buds (FGF7 culture, length of time in culture), the “Expression of mature alveolar markers Aqp5 and Sftpb over time (QRT-PCR)” value is “significant increases”.

These data come from patent publication US11857697B2, “Compositions and methods for obtaining 3-dimensional lung-like epithelium and related uses thereof” (THE REGENTS OF THE UNIVERSITY OF MICHIGAN, priority 2017, dated 2024).
